Test: soluble fraction after stress (log2 fold change); higher = more stays soluble; pooled small domains, quantitative proteomics
Details: stress: pH 4
Summary of the method: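 Aggregation propensity is read out as the fold change in how much of each domain remains soluble after acid stress. The custom small-domain libraries were pooled, held at pH 4 and analysed with high-throughput quantitative proteomics. On the log2 scale used, higher values mean more of the domain stayed soluble.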

Sequence | soluble fraction (log2)
HMSLTEDELFHALTIYANREGINIGATELKYLLTHYARNLGKLIELINQVSQAATMQKKPITIPLIKHS | -0.251
HMSLTGFYNLTFKQADRLSVIDEAGEEVYKQAIAMGSTTKTIDLSALNAGVYFIRIYNGEVIAQEKIVLN | -0.958
HMSLTYTGKFILNHNNIDQSSFNINIYLVNKQTIIQITKPFYGNVLNIKFNEENDLIISPKQFS | -0.9
HMSMDPYTVLGVNKSSTDSQIKNAYKNLAKQHHPDRGGNEAKFKEISTAYEQIKTAEKRQQYDMSQQF | 0.389
HMSMFAQQLKDLRKKIPGLTQTDMAKKLGIAKTTYASYEQGKRTPDIETQNKIADFFNVSLDYLHG | 0.22
HMSMFSEILRTLRKAKGLTQRELAGHLGVTQQMVAKWEKGQSTPGPDQLTRMAELLEVSTDTLLGR | -0.104
HMSMNSWFVEKERDNTRIDKFLNEQMADISRSYIQKLIKDDLVTVDLRPVKANYKVKEGDRVEVTLPEPV | -0.0679
HMSMPTITLQHYKRGSHYYASIIETFRDPVTRKNSSRTLEALGDISEKMKEDPNYLQSLKDRVKALRSD | 0.156
HMSMSLQFLSRRIRLQREKRGLKQHDIAHALQISPQAVSKWERGENAPDIALLRPLAGLLGVSIDWLMGGD | -1.7
HMSNEEEIEGLVSKVLDNNPEIVERIRSGEDKLISYLVGEVMKQSSSSLNPGIVKEIIVNKTI | -0.154
HMSNEITVPDLSGMSLEELETILSDRSLSYEIIDSIYNSTAKKGTVSSQDPLPDAKVKSGRTIYITVVSKL | -1.31
HMSNENIDQDELQAIIQKVLASNQDAVAKYKAGKTAVIGFLIGQVMRQLNKKIDVALAKKTLLVFLEK | 0.0782
HMSNETKSAILNFAEKHHDFNIDDLFESLSKSMDINRSSLLWHLFKLVNSNVLIRTGRGMYAKV | -0.839
HMSNEVSYSDFVRSVESDEVNAVTLDGEQIRFVGNDGQTYSVIKPADAQITQLLIDNNVTVRAEQQ | -0.0566
HMSNEYLMPNLIGMSWDEAKSKYSQYMTLVPEQEWSEVTKDQIFDQEYPEGRKVKIGTEVTVKVSMGI | 0.228
HMSNFGALLRMRRLEAGLSYRGLAEQSGLARATLVNLEQGLTKPSPLTMRRLASVKALRLTEL | 0.00389
HMSNFGERLRALRQDRQMTLQQASKVTGVAQSTLSKMENNQLSPTFNLMQKLAIGLGIDMPQLFAPVK | -0.18
HMSNGEWQQGSDGRWWYKFSDGTYPKNKVETIGGKKYGFDSEGWMLANTTKEFSGTTYSFGADGVATS | -0.0709
HMSNHYETLGVEQTASVDEIKKAYRRLSLQYHPDRNTTSDAVGKFQKINDAHEILSDKQSRTEYDMQLK | 0.0857
HMSNIQLAANLQRLRKDHHFTQTQFSKKLNISRQAYSNYETGKRIPDLDIIIRIANIYHISLENLL | -0.203
HMSNKYYETILDWFKSQIMSGELKEGDTIPSERELATRFGVSRVPVREALRILEYIGIVSNTADGMTVQKV | -0.976
HMSNLKKRRLEKNLTLDDVGKLVGVSAATISRWESGDIENMRSDKIVKLANALEISPAVILGW | -0.641
HMSNLLKNILDVLEKEGPLKARKIALLLDSTRTTITHTTINSELYKALDLEGLTKNEQNIWSYVT | -0.389

Sequence | soluble fraction (log2)
HMSNLVEVPAVIGRMKEDAITMLISAGLEPAVTYDEYPLVKENLVADQSVAPGQKVEKGSFVTITVSRS | 0.22
HMSNMESLIGREATVIEMIPAEDVGRVKIDGDEWQAVLAREDDNEPRRDIQVGEKVIIVSYDSIILTVKTK | -1.02
HMSNNENSILEKLNSFSGKKIKVSHTIGSLAARLDEYPKIKMWLYKRIRENSINEQAYKYLIFIIERKVR | -0.0495
HMSNPADDVVDLLRQLRLPHMRAAAPELLATAKAQRWDPAEAIRALLTEELAGRQASSINARRK | -0.226
HMSNPPIRIGKKALHELLTTWLSLLSRDGVAYLVVQKNLGADSLTAWLRDQGFPSEKIASKKGFRIIEVH | 0.0506
HMSNRDNPVVLDFKKVKSTEQLDNILEEYIRENFEGYTVKGRMFSSDEGKFIIALALKDDDGKRALVYFDV | -1.06
HMSNRIDKIKLNHWLNIRKTSLDVLNNLLSKHLNHKINFENLENLDEQAIEKISEVLSIPKNKLLINDDVP | -0.226
HMSNTVEDLIDDIGTVTKDSKDKIDAARKAYDGLTEDQKKLVPDSVLKTLTDAEAAYAKLTK | 0.191
HMSNWYGTVVKIQPRPNAQAADTAVVKLLDGSEHRFPVWADHLTTIEVGSRLKKLSGGWDPVLMDPEETF | -0.573
HMSNWYKNNETDQIWWKDTPDSVGEWLFSFDKKQVFNMFADYPHNLTPEQKKIFDEENPEWSDRP | -0.981
HMSNYPYLLRTYEGKLAVFTDDLVQPDLVFDVYVRTLPELDQQQLSRGIRVKTYDELTSMIEDYI | -0.956
HMSPAVEDYLEQIHNLIAQKGYARVVDIAGNLKISQASVTNMIQRMDADGLVVYERYRGVVLTETGRK | -0.456
HMSPDLNEVEEKVFRALNGVESMHVNKLGIELNLPVSELFFTLLELEMKNVVKALPGGMYKL | -1.1
HMSPFYILDEVEAALDDTNLGRLLEIYEELRENSQLLVITHQKRTMEVGDALYGVTMRGDGVSAVISQRLR | -1.74
HMSPKYLELVRWINTQIQEKKLTAGQKMYSENELKEMFGVSRQTVRHAISVLEGEGMIRRVRGSGTYINDN | -0.043
HMSPLALLTPRELDILRAMTAGASNKEIARQFAIAETTVKIHVQHILRKLDVTTRVHAAVMASESGL | -1.09
HMSPPALAVQRDGSNVQISWPGAEEGWRLESSAEPSGAAWDLIAQNPTPVGGRWTVSLTEPTGRRFYRLVK | 0.039
HMSPSLVEAMRLRMYEMGLNQAKLSELLGVSPSRVSDYLTGRSEPTLKVARDISRKLNIDASIVLG | -0.0682
HMSPSQFRSKSLLVEINFASRQMDGEILQGDYAGKRLSELTEAEVQELTAWLKQSDRESFVLLQAYLLRSG | -1.17
HMSPSSPNQILGQYPKTKNDIILSSGRYGPYLKYNKKNYSLGNNISVEKLSLEEAVKIIDLKDKK | 0.0926
HMSPTDKATVNVYALNVRTGPGTNYKVLGSVIKGTELQVLGSSGKWLKVKYGNREAYVAGWLVK | 0.118
HMSPTEQEKIGLFIKKLREEKNLTQEAFASLLKTSQSAVARIESGNQNITIEQLMKIGEVLNHNIVSI | -0.215
HMSQDPLETYYPQWSAAVKQSNPDAEIIRDTDGKYYVEGMTKNRVAVIYENPHLVRLVNATTNVHVE | 0.238

Sequence | soluble fraction (log2)
HMSQDTLIGRVGVIVIGQARTGSPAQVRVKDGFGQTHYVMAEPDSEGVLKQGEAVLLVSLEGNTFKAILNP | ≥ 0.43
HMSQDVLLKRSGDQIEVKITEVGEDYLKYKKKGFENGPDFKINTSDVFMVTFANGEKMMFEES | -2.15
HMSQEAKLAMPVTDLRLSARTLNALELANIRTVRDLVSHTEEQLLELRNFGETALAEVKEKLAALGLRLGM | -0.436
HMSQESIMPNLVGSTEDEAKAIAVEYGFQLNVISRVNNSQYPAGVIIDQNVDEGVRIKAGYPVGVTIS | -0.0416
HMSQIAENNQKYVGTIQKVLVEGTSKNNDDMLTGRTDSNKVVIFEGDKKLIGNMVELKIVSEHMWYLKGEL | -0.0811
HMSQISKLWRPSEDVTEILTRSGMDSEFLEGLIPEFIIYWSERADVLVSYNSKFIEHARLKWAQHSAEIKT | -1.94
HMSQLLHELLAHVLKDRIISGEWPAGSRIMSEHALQERYGVSRGTVRRALAQLVQEGLLVQRKGKGTFVTR | 0.35
HMSQLVTGVLRNLNDISEKIAAGKAVPEMLGRLENMQQMIANLKGNEGLIKSISILTRSAQDALR | -0.0398
HMSQPLYWQIRRMVIDHDDANDVLQNTFIKAWSNIGSFRGDAKFSTWLYKIAVNESITFINKKKVQN | -0.0472
HMSQPYFELAAADMEALRNALSTIREIESVVLSGKIFHVEVREDLDPGTMNKLAFERGITLTHLVKKKN | -1.06
HMSQRINLNSASIEDMQSLDISNEKIDSIIDYRNRYGNIHNIYELLKIPGITIGDIHSIRNAVTVEIPH | -0.472
HMSQSLSGWAAKDLEVKSGADASYRTVGRLPKGSKVSGKIINGYLHIEFDGSMRYVPVSGISKTE | 0.156
HMSQSYHLADRGQSLGTLDYQAVLVGLATGRLSPDTLSWQEGEAGWVALRQRPEFASGVSAVASL | -0.753
HMSRAHTELEEKLLTMLEENDMTLPMRVISNIASRIEGIIIPEEKILEVLKKSYDRYREHQMD | -0.784
HMSRARSRQTSMLEAVAGLGPARRRALLKQFGGLQGVLRAGIEDLSRAPGIGPALAQAIFEHLHPGA | -0.0797
HMSREQARRFYFDTWAKHRASQPLTDLEKIALTVMLLHPEYHSLLDKPDHYVDKDYSPEAGQTNPFLHM | -0.474
HMSRIDRKGLTSQIVNHLSKNPGKNFTLKQFFRNLKLNTHPLKMLAVDVLNKLLDTNFITRNEDGEFFLKA | -0.123
HMSRLMIVTPDGRIMDDVPEFGEVRTTTDVNGRVLVLDRNNVVIGFEMTPREYRREFGRNPF | 0.0337
HMSRQAPIGHRIRGRRKDIGMTQNALAKAAGISPSYLNLIEHNRRSIGGGLLMRIAAILDIHPHTL | 0.0837
HMSRTLLVYVTGAVRQPGVYELPEGSRFFDAVKAAGDVLPYAVMEDINMAEPLSDGMKIHIPLDPEQ | -1.01
HMSRVFSPSELEIRHAQDVFQALEEAKRQGKGAVSLNGKMIDAPIVARAKLVLEAAAAIYGED | -0.202
HMSRVHHGFNISIARNRKGLKQAALADMLGISQQRLSQLENQRVVKDEILEKVSEATGVSVEDLKTIE | 0.171
HMSRVSVDGEEVNFEGEIPDDPSRIYELLMGALSEQSRVVVKFFVDGKDALLDEGFPSRYQMIEAESV | -0.733

Reference: the domain aggregation screens of Martell et al. (2025)
